Measurements: US20050008628A1

Target: mutant voltage gated potassium channel (Kv1.3)
Experiment: cell-based or functional assay

Margatoxin (from UniProt P40755 1-39) (peptide)
local ventricular effective refractory period (ERP) at graft site after MTx, one rat (170 ms before MTx): 100 ms
